Source: US9713649

Target: Prostate specific membrane antigen (PSMA) (UniProt Q04609)
Assay: competitive binding on LNCaP or PC3-PIP cells; displacement of 12 nM N-[N-[(S)-1,3-dicarboxypropyl]carbamoyl]-S-[3H]-methyl-L-cysteine, scintillation counting

Sequence of Prostate specific membrane antigen (PSMA) (Q04609 whole entry): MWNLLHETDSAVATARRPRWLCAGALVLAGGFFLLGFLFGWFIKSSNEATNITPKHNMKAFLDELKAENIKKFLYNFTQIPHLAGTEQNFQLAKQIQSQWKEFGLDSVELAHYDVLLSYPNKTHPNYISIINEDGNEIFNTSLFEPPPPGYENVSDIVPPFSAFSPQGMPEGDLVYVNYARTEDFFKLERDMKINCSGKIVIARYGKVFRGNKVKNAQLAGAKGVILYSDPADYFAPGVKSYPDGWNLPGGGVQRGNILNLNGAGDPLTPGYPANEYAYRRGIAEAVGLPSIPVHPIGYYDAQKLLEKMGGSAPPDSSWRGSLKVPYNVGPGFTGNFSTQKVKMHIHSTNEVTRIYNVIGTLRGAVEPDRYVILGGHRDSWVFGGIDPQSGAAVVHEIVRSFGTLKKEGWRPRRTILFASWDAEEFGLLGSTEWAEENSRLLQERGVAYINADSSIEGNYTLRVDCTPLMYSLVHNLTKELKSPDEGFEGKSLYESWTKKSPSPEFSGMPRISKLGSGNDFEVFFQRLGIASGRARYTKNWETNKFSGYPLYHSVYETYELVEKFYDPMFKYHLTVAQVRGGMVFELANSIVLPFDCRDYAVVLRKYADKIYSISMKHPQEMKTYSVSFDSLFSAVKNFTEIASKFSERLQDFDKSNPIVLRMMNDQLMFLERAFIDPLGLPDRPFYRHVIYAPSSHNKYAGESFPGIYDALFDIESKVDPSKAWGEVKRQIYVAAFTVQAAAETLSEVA

ZJ-MCC-Ahx-dEdEdEG (Compound 1) (peptide)
IC50: 2.2 nM
